Assay: soluble on expression in E. coli; label from the status in PepcDB or PDB records

Sequence | soluble on expression in E. coli
MSLKKIGIIGAGGIARAHATALSTIKNAELVGVYDINQQNAESFVKTFGGKSFENVDELIDASEGLIVASPNFCHKEHALQALGKHKHVLCEKPMAISLEEASIMKDTAERLSVRASMGFNYRYLSYVNILKSLIINNELGNILSIKVHFKKNSALRRKKFTWRDDANSKKTSGSLGDLGIHLIDMVWYLFESDFITESVRAKMNTNVKTKEDKQVLVDDYAEIYGQLRNKVFVNIITSKCSVPEDCGFSIEVVGHKKEFKYHTGNPHVYKLIDGLNVVDCPVPQSLLNDPPNEFYGWADSFRSELINWIASTQNDWVEIPSFSDGFRSQEVLEMFFEKDSNSQPMSVSAVNEGHHHHHH | soluble
MGSDKIHHHHHHMNDIIKLIKSIIIEMDMEAYIVGGYIRDKLMNPKNSASDLDIAFQGDFEKILDELRKRKIKVSSIKKDSSVYRITVNGYCADISKIKGKNINEDLSKRDFTVNAIALDIKNNKIVDPFDGRVHIKRRILQVIDEKSFEDDAVRILRGIRFYIKYGMHFNGYTEEYIRKHSKNIMKFPRDRVLDEIIHIIHEDENGVFFEVMDQYMILKNILPYMEELKTVGKCKHHLVDAFTHMNTAYHVFKDMKKKYLKVKNINIEEFNKDIGVYNELDYLAFAIFTHDIGKYVSYKKEGQKISFKGHDEKGLEIIEKVCDELKFPNDGKKIVCSVVKNHMYPLMLFKLKEDERKQEEYEFFNKFDQYVPHIIVASFCDVYATTIYIDENNEKDRFTSFISELVVKYREFINLKKIKYIDGNDLIDMGFRGNDIGNILNELNKMLYIEGSKTKKEQQDFVLRMKDKL | not soluble
MYQAIAQAIIKSIMADEYPTKLPTEKVLMAQYNASRNTIRKAIDVVFRHGLLRRVQGSGNFIIKQPQNTKKVLNLSIGFDQSAMVDGGPLVSKVVTFDKVTADETLAQQGNIALGDEVYRVVRLRYLNDILYDLEESYFPRTVVPFLSSESVQHSIFAFLREAYGITGSTTENYVHQVRVDAQRAELIGCPDGDKTLCLEAINYLANGTVFNFSRTFFVYPDLELYYHTENIDLQN | not soluble
MGHHHHHHSHMKTTLKMTALAALSAFVLAGCGSHQMKSEGHANMQLQQQAVLGLNWMQDSGEYKALAYQAYNAAKVAFDHAKVAKGKKKAVVADLDETMLDNSPYAGWQVQNNKPFDGKDWTRWVDARQSRAVPGAVEFNNYVNSHNGKVFYVTNRKDSTEKSGTIDDMKRLGFNGVEESAFYLKKDKSAKAARFAEIEKQGYEIVLYVGDNLDDFGNTVYGKLNADRRAFVDQNQGKFGKTFIMLPNANYGGWEGGLAEGYFKKDTQGQIKARLDAVQAWDGK | not soluble
MAHHHHHHMTTLEKQLQSSTLSKQCRADLLNHVEEVETNSRRLPKKMITLPDPNLPSAVTMPTDNSVKRGTRSATAGANMARSLHYTTRKREKDEMVASRITSDRNLSGTYFKDCSHKFVNGARSWSDPFRSSRSRTALSGKDMDFVYRYAEAATGSAIERPQPADDASVAATAAYRKAFRQYKGRDPTAKEMEEAGRLVYAFDENCSVGVLQKPHSCYPHTHISAVKTHIRACPNQVYLPEVPPVRAARSEFPGPIPTWSSTKRTTTMATNGTYRPGHHQAKSLKWEAVSTVVGSR | not soluble
MSLSQERFRVKYQIFEESKRAKEIAEAICVEQTIEFPIELTGNSIRENVVGKIEEIQNNHNSTVVTISYPVETVGNEPAQFFNVIMGNCSLFPNLKIIGLQLSPSIENIFPGPRYGISGLRKLLSIYNRPLLATAIKPMGLSTDQLAQMAYNLALGGVDIIKDDHGLADQPFSKFKDRVLKVTEAIHKANRETGFHTIYAPNITSNEQTMLKQAEFVKEAGSGALLVSPALSGFSSFITLRENTDLPILSHPAFLGGYLSIMDFDVLFGTIQRMIGADVVIFPNYGGRFTFSKEDCRKINHGLKKPFGSFKEIFPSPAGGMNIDSCGDIVSFYNKDVVLLIGGALHKAGADLTENVKAFKAQVEKIHVREGHHHHHH | soluble
SLSAALRTLKHVLYYSRQCLMVSRNLGSVGYDPNEKTFDKILVANRGEIACRVIRTCKKMGIKTVAIHSDVDASSVHVKMADEAVCVGPAPTSKSYLNMDAIMEAIKKTRAQAVHPGYGFLSENKEFARCLAAEDVVFIGPDTHAIQAMGDKIESKLLAKKAEVNTIPGFDGVVKDAEEAVRIAREIGYPVMIKASAGGGGKGMRIAWDDEETRDGFRLSSQEAASSFGDDRLLIEKFIDNPRHIEIQVLGDKHGNALWLNERECSIQRRNQKVVEEAPSIFLDAETRRAMGEQAVALARAVKYSSAGTVEFLVDSKKNFYFLEMNTRLQVEHPVTECITGLDLVQEMIRVAKGYPLRHKQADIRINGWAVECRVYAEDPYKSFGLPSIGRLSQYQEPLHLPGVRVDSGIQPGSDISIYYDPMISKLITYGSDRTEALKRMADALDNYVIRGVTHNIALLREVIINSRFVKGDISTKFLSDVYPDGFKGHMLTKSEKNQLLAIASSLFVAFQLRAQHFQENSRMPVIKPDIANWELSVKLHDKVHTVVASNNGSVFSVEVDGSKLNVTSTWNLASPLLSVSVDGTQRTVQCLSREAGGNMSIQFLGTVYKVNILTRLAAELNKFMLEKVTEDTSSVLRSPMPGVVVAVSVKPGDAVAEGQEICVIEAMKMQNSMTAGKTGTVKSVHCQAGDTVGEGDLLVELE | soluble
MAASLRLLGAASGLRYWSRRLRPAAGSFAAVCSRSVASKTPVGFIGLGNMGNPMAKNLMKHGYPLIIYDVFPDACKEFQDAGEQVVSSPADVAEKADRIITMLPTSINAIEAYSGANGILKKVKKGSLLIDSSTIDPAVSKELAKEVEKMGAVFMDAPVSGGVGAARSGNLTFMVGGVEDEFAAAQELLGCMGSNVVYCGAVGTGQAAKICNNMLLAISMIGTAEAMNLGIRLGLDPKLLAKILNMSSGRCWSSDTYNPVPGVMDGVPSANNYQGGFGTTLMAKDLGLAQDSATSTKSPILLGSLAHQIYRMMCAKGYSKKDFSSVFQFLREEETF | soluble
MQGEDRWADIREMNDRLIACERCPRLVEFRKAVVGRDKRFRGETYWARPVPGYGDINGRLLIVGLAPAASGGNRTGRVFTGDKSSDFLVSCLHEAGITNQPTSERRDDGLIYYDAYITAAVKCVPPDNKPLPEEIENCSVYLRSEIGFMKNLKVILVLGQIALQAVVRLIADPAEPRSRYRFVHGAVYSMNGIRVVCSYHPSPRNVNTGKLKRSDFVDLLKKVKEMALE | not soluble
MAHHHHHHMPWATTLDLKATPPPTLCVTVSNTTDVLIIADMQVDFLTPGGSLHVKGGEALLDGINAVSSQLPFRYQVATQDWHPENHCSFVTHGGPWPPHCVQGSSGAQLHAGLHTHRINAVLRKGATQQADSYSAFVDDNGVSTGLAGLLHSIGARRVFVCGVAYDFCVFFTAMDARKNGFGVVLLEDLTAAVDDAAWSARAAELKEAGVVLLSSSALVAEGTET | soluble
MSERESLSGADNAWRRMGTPTNLMTITGVMMFDERMTYEDLCNRLEERLLRFERFQQRIGGRKRRFRQPYWETVDGFDVEPHVYHISLPEPQDKATFEAFVGKLMSRPLDESRPLWEAYLVDGAGPGEGNAVAFRLNHSIGDGFALLYVLLGLVDNPGDIELPSGMVSAPDDIGDDADSGADGGNGSDESDVASGDGQPADTDSKSDGERGSSGLPSPVSAAGTAATGVATGYDLLFGDDDPDTSLRGELGQTKRAAWTDEIPLEQVRTVCEAQPHRATINDVLLAALAGALRRLLEDRGEPVDGMELHGTVPVNLKPMAERDGSLGNNFGLVFLPLPVGTEPLQERISIIHEWMDGKRAGIQAFLMYALLTIGGHVPEYVQKKVMTLFEDRATGVVTNVPGPTDAIQFAGREITDMIFWVPQANEQGIGISIFSYDGNVRVGVAADENLLGAPGELAAAFEAEMEALLEDAELEHHHHHH | soluble
MSAATKKRYITNKVGSEFYELVDEDIIAQVRQSRGNNLHEVLDQNGDSYVVSMPTKFRKSVWLRRDQFVVVRPITEGDKVKGEIEYILDQDNVLYIRELGKWPTCFEENALKMTREAKRGQTSDKMIDDDMLPPSESEEEDESEGEETYDEDDVDDEEEEEFDTYNPNRMQAPSK | not soluble
MSKADPSKGPAPACPGPDPAPRRPTRYVVPPGAVDTHAHVIGLPPTYPFVDARSYTPPAATPESYLAMLDATGMTYGVVVQVSVHGTDNRLMLETLQAHRDRLKGIAVIPLGLPDKELAALKDAGVVGLRLNILYGGGIGFERVGEYAAMAKELGWHLQFLIDAKDLVPLAPQLGGLPVPFIVDHWGHFPVSRGIDDPGFQTLVSLVRDGAWVKLSGAYRNTVAGFPYLDTIPFARLLHETAPDRCVWGSDWPHVATWQHMMNVGELLDLLADWVPDAAARDRVFTDNAYRLYGFTPVQGLEHHHHHH | not soluble
MLSIKGKKWRNWTGNVEGTPHYTMYPESIQDVVEVVGLARKKGKKIRVVGSGHSFTPLVQTEEVLVSLDELKGIVNIDAEKMVAEVWAGTKLYDLGKLLEEKGYAQENLGDIDSQSIAGAISTGTHGTGITFGSLSTQVIEITAVLSNGESIVCSETENVEYWRAFQLSLGMLGIIVKIKLKVIPAYSLVYESEKQSLSTVMNKLEEYKKHRHFEFFVFPYSDEVQVKLTNETTNTGSDLKWHKLKVELLENRMFSLLSKGCKWFPSISKGVSRLSAKAVPNTKIIGPSYEVFATSRTVPFYEMEYSIPSKYMRTVVEEISNLIEKKKYKVHFPIECRYVKGDDIWLSPAYGRDSAYIAVHMYKGMKYAAYFGEVEKIFLKYEGRPHWGKMHTLSYEQLQDIYPEFHSFLQARKSLDELGMFFNPYAEKLFIPLFAGQ | not soluble
MAMDLRDPNVWISHLLENLPEEKLASALKDDNPDWEYIDGEIVKLGSLAHAQLDIPELQRRGLQLLASESKDFRLLAHLLRTLQHAGDPLLALHLLTLYVEHYWTVAAPQNMAHKKRFASQIIKRFETVLKAFHKTLPQRSAILCWVSWRNWRSAGSHITSRNWHRLPMIFLPCTSVRLIVRLLLRSPLRRPPVVHHKPPSRLKAA | not soluble
MSNTSSSHNTAFTPSSPAERYAQALASGQFMPDEAQAQAVQELERVWQELLSRYKASKKAFRRFRRQTSPKGVYMWGGVGRGKTWLMDQFYDSIPFRRKTRMHFHHFMQHVHRELNKLSGQRNPLDLVADQIYKDAVIICFDEFFVSNVTDAMILSDLFQKLFNRGVTLVATSNIAPDGLYKNGIHRDRFLPTIELVQKNCTILNVDAGVDYRLRVLKQAQLFKHPLTDDAKIWMSQRFSAITRSQIVSQQPITINNRVVETLGHTEDVLWCEFSELCLKPRSPADFIEIANIYNTVLVSNVPHLTDYLSEGTRRFIYLVDEFYDRGVKLLLTSQDSIIEIYEGEKLAFEIERTRSRLLEMQSDEYLHSEHRHINSENNSLEHHHHHH | not soluble
MASIKKVYRGMKNGAETINDDLEAINSELTSGGNVVHKTGDETIAGKKTFTGNVEVNGSLTLPTKSWSGELGGGIILSLRKKGTTVEYSIGGEISSSILANSNLVNRSVPNEFCPRNRCSLVGHMVGGWNAFHIDIPSSGVCQWFGPTASSGTPRGTGTYPIDHHHHHH | soluble
MKLAVIAANGQAGKAIVEEAVKRGHEVTAIVRSENKSQAESIIKKDLFELTKDDLTGFDAVISAFGAYTPDTLPLHSKSIELFNQLLAGTQTRFLVVGGAGSLYIDETKTTRLLDTPDFPEEFKPLAKAQADELDLLRTKNNLNWTFVSPAVDFIPDGEKTGNYILAGEIFTTNEKGISQISYADYAIGLVDELEKGHHIKERISLLEKLEHHHHHH | soluble
MMTLIRITSADDSRLNRLIPLYEESFPESERRKIGQLKRMIENHAPMYFNAIECDGELSGMFVYWDMGDFYYLEHLAVFPEMRNKKIGQQVLDYVAEHLKGVRLLEVEPTEDEMTTRRVNYYRRNGYEVLDKTYVQPSYHALEDACPLWIMGSEDSPRLAEQVERIKEEVYRQQVG | not soluble

— the DeepSol protein solubility set
